Test results taken from patent US20210032308A1 (published 2021).

Target: T1, recombinant human CD2 (biotinylated) (human, UniProt P06729 25-209, biotinylated (site not stated))
T1 construct: also called hCD2-biotin; human recombinant CD2
T1 sequence: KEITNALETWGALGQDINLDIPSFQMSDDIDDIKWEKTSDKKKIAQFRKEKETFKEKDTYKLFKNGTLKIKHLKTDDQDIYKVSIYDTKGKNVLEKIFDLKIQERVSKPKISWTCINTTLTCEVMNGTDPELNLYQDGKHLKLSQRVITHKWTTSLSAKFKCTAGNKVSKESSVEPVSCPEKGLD
Experiment: flow cytometry on LFA3-displaying yeast

binding result: binds
B1: N-terminal Ig-domain of human LFA3 (Residues 1-93) displayed on the surface of S. cerevisiae (ligand, not shown: small tags and cut ends; large carriers)
chain: FSQQIYGVVYGNVTFHVPSNVPLKEVLWKKQKDKVAELENSEFRAFSSFKNRVYLDTVSGSLTIYNLTSSDEDEYEMESPNITDTMKFFLYVL
